# Measured values from patent publication US9334316B2, “Formulations comprising glucagon” (Oregon Health & Science University, priority 2014, dated 2016).
# Where two headings read alike, the source gives them in different places.
# Key:
# [1] = 1st order degradation kinetics of ferulic acid / tetrahydrocurcumin in glucagon formulations; assay type: physicochemical; conditions: for half-life at 1 mM: buffer, read-out: degradation t1/2 (converted)
# [2] = Curcumin half-life in glycine buffer at pH 9.0; assay type: physicochemical
# From the text: Curcumin reduces Aβ fibril formation in vitro and when administered systemically to transgenic rodents predisposed to Alzheimer's disease (Hamaguchi T et al, Am J Pathol 175, 2557-2565 (2009) incorporated by reference herein). Curcumin has also been reported to inhibit the polymerization of α-synuclein, the compound responsible for Lewy body formation in diseases such as Parkinson's disease (Ono K and Yamada M, Curr Pharm Des 14, 3247-3266 (2008) and Ono K et al Curr Pharm Des 14, 3247-3266 (2008); both of which are incorporated by reference herein). This finding was confirmed in Pandey N et al, Acta Neuropathol 115, 479-489 (2008); which is incorporated by reference herein. However, curcumin stored in a glycine buffer at pH 9.0 degrades quickly with a half-life of about 7 hours.
# [3] = cited from earlier work
# [4] = Reversed phase LCMS of glucagon modifications after aging; assay type: physicochemical
# Protocol: FIG. 3 is a set of four chromatograms from reversed phase LCMS showing the modifications present in glucagon incubated with ferulic acid under the indicated conditions and the recovery by adding varying amounts of L-methionine. The peak indicated as ‘A’ is identified as Met27 oxidation of glucagon; the peak indicated as ‘B’ is a minor breakdown product; the peaks indicated as ‘C’ are identified as glycine adducts.
# FIG. 4 is a set of four spectra from reversed phase LCMS showing the modifications present in glucagon incubated under the indicated conditions. The peak indicated as ‘A’ is identified as Met27 oxidation of glucagon; the peak indicated as ‘B’ is a minor breakdown product; the peaks indicated as ‘C’ are identified as glycine adducts.
# This oxidation occurs on amino acid residue 27, which is a methionine residue (Met27). In order to minimize oxidation, L-methionine was added to the formulation as an antioxidant at 0.1 and 1 mg/ml. […] This is presumably due to activation of a reactive site on the glucagon backbone that results in an addition reaction with glycine from the bulk solvent. In order to maximize the antioxidant properties while also minimizing the glycine adduct formation, a concentration of 0.1 mg/ml L-methionine was tested. Results are shown in the third panel from the top of FIG. 3. This particular formulation had some minor chain cleavage (peak B) that is variable from batch to batch. As a result, the formulation referred to herein as FAFG includes 0.1 mg/ml L-methionine.
# This peak is inhibited at 0.1 mg/ml L-methionine added and nearly absent at 1 mg/ml L-methionine to minimize the oxidation even though glycine adducts are still in high amounts. As a result, the formulation referred to herein as THCFG includes 1 mg/ml L-methionine.
# Ferulic acid and tetrahydrocurcumin modify glucagon less than curcumin.
# [5] = 37° C., alkaline (around pH 10) compared to acidic (about pH 3); cited from earlier work
# cultured mammalian cells = conditions: fibrillated glucagon; cited from earlier work
molecule,measurement,setting,value
COc1cc(/C=C/C(=O)O)ccc1O [ferulic acid],1st order degradation k,"[1]; 1 mM, pH 9",-0.000701 s⁻¹
COc1cc(/C=C/C(=O)CC(=O)/C=C/c2ccc(O)c(OC)c2)ccc1O [curcumin],half-life,[2]; glucagon buffer with further addition of human serum albumin,33.5 h
same,half-life,[2]; in a glucagon buffer,12.5 h
same,half-life,[2]; stored in glycine buffer at pH 9.0,~7 h
glucagon,cytotoxicity,[3]; aged at pH 10 in glycine,no cytotoxicity
same,cytotoxicity,"[3]; aged for 5 days at pH 8.5, concentration 2.5 mg/ml",some cytotoxicity
same,"Met27 oxidation of glucagon (peak A, LCMS)",[4]; aged 7 days at 37° C. with 1 mM ferulic acid,minor oxidation occurs
same,"Met27 oxidation of glucagon (peak A, LCMS)",[4]; aged with 1 mM ferulic acid + 1 mg/ml L-methionine,minimization of oxidation
same,retention of unmodified glucagon,[4]; curcumin formulation + 1 mg/ml L-methionine,higher retention of unmodified glucagon
same,oxidation of glucagon,[4]; incubated with curcumin for 7 days at 37° C.,complete oxidation
same,"Met27 oxidation of glucagon (peak A, LCMS)",[4]; incubated with tetrahydrocurcumin,much higher amount of Met27 oxidation
same,"Met27 oxidation of glucagon (peak A, LCMS)",[4]; tetrahydrocurcumin + 0.1 mg/ml L-methionine,inhibited
same,"Met27 oxidation of glucagon (peak A, LCMS)",[4]; tetrahydrocurcumin + 1 mg/ml L-methionine,nearly absent
same,amyloid fibril formation,[5],much less amyloid fibril formation
same,cytotoxicity,cultured mammalian cells,cytotoxic
COc1cc(CCC(=O)CC(=O)CCc2ccc(O)c(OC)c2)ccc1O [tetrahydrocurcumin],1st order degradation k,[1]; 1 mM compound in 80 mM glycine pH 9.0,0.00886 s⁻¹
same,1st order degradation k,[1]; 1 mM compound in 80 mM glycine pH 9.0 + 1 mg/ml glucagon,0.000743 s⁻¹
same,1st order degradation k,[1]; 1 mM compound in 80 mM glycine pH 9.0 + 1 mg/ml glucagon + 1 mg/ml HSA,-0.0025 s⁻¹
same,half-life at 1 mM,"[1]; pH 9, 1 mM compound in 80 mM glycine pH 9.0 + 1 mg/ml glucagon",933 h
same,half-life at 1 mM,"[1]; pH 9, 1 mM compound in 80 mM glycine pH 9.0",~78 h
